The series addresses VEGF-165 (UniProt P15692-4 27-191). Put plainly: magnetic bead capture with fluorescent complementary probe (fluorescence rebound); 50 uM KCl, 1 mM Mg2+, pH 7.0; linear 0.2-2.0 ng/mL VEGF in plasma, LOD 0.0445 ng/mL; 1X TBSE: 10 mM Tris, 0.05 mM EDTA, 100 mM NaCl, 1 mM MgCl2, 50 uM KCl, pH 7.0; 0.1 uM aptamer (95 C 3 min, cooled), 25 C, 45 min. As to conditions: protein: commercial; chain copies: 2; label: 5'-biotin; G-quadruplex.

Chain of VEGF-165 (P15692 other isoform, or with tags, fused parts or gaps): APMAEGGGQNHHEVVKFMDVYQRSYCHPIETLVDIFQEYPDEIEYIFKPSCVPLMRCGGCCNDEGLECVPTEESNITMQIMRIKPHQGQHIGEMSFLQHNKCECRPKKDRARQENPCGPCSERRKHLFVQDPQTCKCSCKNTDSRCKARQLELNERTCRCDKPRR

For TGTGGGGGTGGACGGGCCGGGTAGA (structured_DNA) [VEGF aptamer (APT)], the binding result is recorded as “binds”.

The values above are taken from PMC10296741, “One Single Tube Reaction of Aptasensor-Based Magnetic Sensing System for Selective Fluorescent Detection of VEGF in Plasma”.
